Test results as given in US20200157151A1, “PEPTIDE COMPOUNDS, CONJUGATE COMPOUNDS AND USES THEREOF FOR TREATING INFLAMMATORY DISEASES” (TRANSFERT PLUS, S.E.C., priority 2017, published 2020).

Target: Human recombinant Sortilin chimera protein from R&D Systems (#3154-ST) (human) (UniProt Q99523)
Test: SPR (Biacore), Sortilin immobilized on CM5 chip, ligand injected

Chain of Human recombinant Sortilin chimera protein from R&D Systems (#3154-ST) (human) (Q99523 78-755, change not shown): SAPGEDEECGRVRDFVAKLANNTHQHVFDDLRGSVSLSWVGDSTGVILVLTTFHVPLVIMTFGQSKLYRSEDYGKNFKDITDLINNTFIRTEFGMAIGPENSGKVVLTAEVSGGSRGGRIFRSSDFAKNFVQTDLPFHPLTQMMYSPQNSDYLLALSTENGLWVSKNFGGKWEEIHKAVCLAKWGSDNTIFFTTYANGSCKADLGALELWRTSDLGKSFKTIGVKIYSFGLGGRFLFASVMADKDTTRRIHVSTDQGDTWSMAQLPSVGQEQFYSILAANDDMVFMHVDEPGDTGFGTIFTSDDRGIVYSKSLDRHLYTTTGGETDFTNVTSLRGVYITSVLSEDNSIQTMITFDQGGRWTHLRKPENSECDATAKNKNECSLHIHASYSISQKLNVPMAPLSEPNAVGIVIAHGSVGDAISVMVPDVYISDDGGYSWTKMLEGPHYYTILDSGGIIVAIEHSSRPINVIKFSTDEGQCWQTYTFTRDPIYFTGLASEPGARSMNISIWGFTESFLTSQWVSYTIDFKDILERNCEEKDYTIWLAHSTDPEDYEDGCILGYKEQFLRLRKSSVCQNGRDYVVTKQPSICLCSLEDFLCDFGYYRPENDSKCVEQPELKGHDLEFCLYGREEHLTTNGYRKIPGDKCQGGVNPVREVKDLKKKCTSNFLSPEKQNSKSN

Row | Kd | Substance
1 | 4.2 nM | Receptor-Associated Protein (RAP) (ligand)
2 | 117 nM | Neurotensin, P30990 151-163 (peptide; modification not given)
